This data set concerns the molecule itself. Put plainly: crystal structure; orthorhombic crystal form, 2.6 Å, nucleotide-free, three copies in the asymmetric unit; contacts between NCS-related neighbouring molecules in the crystal, not the hexameric ring.

B1: Hsp104_(1-360) (domain or fragment, S. cerevisiae, UniProt P31539 1-360, looked up)
chain: MNDQTQFTERALTILTLAQKLASDHQHPQLQPIHILAAFIETPEDGSVPYLQNLIEKGRYDYDLFKKVVNRNLVRIPQQQPAPAEITPSYALGKVLQDAAKIQKQQKDSFIAQDHILFALFNDSSIQQIFKEAQVDIEAIKQQALELRGNTRIDSRGADTNTPLEYLSKYAIDMTEQARQGKLDPVIGREEEIRSTIRVLARRIKSNPCLIGEPGIGKTAIIEGVAQRIIDDDVPTILQGAKLFSLDLAALTAGAKYKGDFEERFKGVLKEIEESKTLIVLFIDEIHMLMGNGKDDAANILKPALSRGQLKVIGATTNNEYRSIVEKDGAFERRFQKIEVAEPSVRQTVAILRGLQPKYE
notes: Hsp104, S. cerevisiae, residues 1-360: N domain (4-164), AAA-1 large domain (165-341) and first helix of the AAA-1 small domain (345-356); three independent copies in the crystallographic asymmetric unit; nucleotide-free; also called N-terminal fragment of S. cerevisiae Hsp104; mol 1; source: E. coli BL21-CodonPlus (DE3)-RIL, purified (Ni-NTA, anion exchange, Mono-S); not shown: His6, N-terminal, …
Regarding B1, the binding result was “binds”.

The values are drawn from PMC5741831, “Structural determinants for protein unfolding and translocation by the Hsp104 protein disaggregase” (Bioscience Reports, 2017).
